# Experimental data as given in the Immune Epitope Database (IEDB).
# Experiments:
# [1] = target: HLA-A*02:50; test: IEDB peptide-MHC binding, purified MHC/competitive/fluorescence; filed as Kd, often an IC50 or EC50 that approximates it; ≥ and ≤ were set here for values at or beyond the usual limits of such assays
# [2] = target: HLA-A*69:01; test: IEDB peptide-MHC binding, purified MHC/direct/fluorescence; filed as Kd, often an IC50 or EC50 that approximates it; ≥ and ≤ were set here for values at or beyond the usual limits of such assays
# [3] = target: HLA-A*02:01; test: as above
# [4] = target: HLA-A*02:11; test: as above; conditions: source organism: Vibrio vulnificus CMCP6
# [5] = target: HLA-A*02:16; test: as above
# [6] = target: HLA-A*02:06; test: IEDB peptide-MHC binding, purified MHC/competitive/fluorescence; filed as Kd, often an IC50 or EC50 that approximates it; ≥ and ≤ were set here for values at or beyond the usual limits of such assays; conditions: source organism: Human immunodeficiency virus 1
# [7] = target: HLA-A*02:01; test: as above; conditions: source organism: Human immunodeficiency virus 1
# [8] = target: HLA-A*02:03; test: as above; conditions: source organism: Human immunodeficiency virus 1
# [9] = target: HLA-B*08:02; test: as above; conditions: source organism: Human immunodeficiency virus 1
# [10] = target: HLA-A*68:02; test: as above; conditions: source organism: Human immunodeficiency virus 1
# [11] = target: HLA-B*39:01; test: as above; conditions: source organism: Human immunodeficiency virus 1
# [12] = target: HLA-B*18:01; test: as above; conditions: source organism: Human immunodeficiency virus 1
# [13] = target: HLA-A*26:01; test: as above; conditions: source organism: Human immunodeficiency virus 1
# [14] = target: HLA-B*44:02; test: as above; conditions: source organism: Listeria monocytogenes J0161
# [15] = target: HLA-A*01:01; test: as above; conditions: source organism: Listeria monocytogenes J0161
# [16] = target: HLA-A*24:03; test: as above; conditions: source organism: Listeria monocytogenes J0161
# [17] = target: HLA-B*08:01; test: as above; conditions: source organism: Listeria monocytogenes J0161
# [18] = target: HLA-B*07:02; test: as above; conditions: source organism: Listeria monocytogenes J0161
# [19] = target: HLA-B*53:01; test: as above; conditions: source organism: Listeria monocytogenes J0161
# [20] = target: HLA-B*40:01; test: as above; conditions: source organism: Listeria monocytogenes J0161
# [21] = target: HLA-B*27:05; test: as above; conditions: source organism: Listeria monocytogenes J0161
# [22] = target: HLA-A*30:01; test: as above; conditions: source organism: Listeria monocytogenes J0161
# [23] = target: HLA-A*11:01; test: as above; conditions: source organism: Listeria monocytogenes J0161
# [24] = target: HLA-B*58:01; test: as above; conditions: source organism: Listeria monocytogenes J0161
# [25] = target: HLA-A*66:01; test: as above; conditions: source organism: Listeria monocytogenes J0161
# [26] = target: HLA-B*14:02; test: as above; conditions: source organism: Listeria monocytogenes J0161
# [27] = target: HLA-A*02:06; test: IEDB peptide-MHC binding, purified MHC/direct/fluorescence; filed as Kd, often an IC50 or EC50 that approximates it; ≥ and ≤ were set here for values at or beyond the usual limits of such assays; conditions: source organism: Listeria monocytogenes serotype 4b str. H7858
# [28] = target: HLA-B*57:01; test: as above; conditions: source organism: Listeria monocytogenes serotype 4b str. H7858
# [29] = target: HLA-A*29:02; test: as above; conditions: source organism: Listeria monocytogenes serotype 4b str. H7858
# [30] = target: HLA-A*02:19; test: as above; conditions: source organism: Listeria monocytogenes serotype 4b str. H7858
# [31] = target: HLA-A*02:03; test: as above; conditions: source organism: Listeria monocytogenes serotype 4b str. H7858
# [32] = target: HLA-B*51:01; test: as above; conditions: source organism: Listeria monocytogenes serotype 4b str. H7858
# [33] = target: HLA-B*39:01; test: as above; conditions: source organism: Listeria monocytogenes serotype 4b str. H7858
# [34] = target: HLA-A*02:12; test: as above; conditions: source organism: Listeria monocytogenes serotype 4b str. H7858
# [35] = target: HLA-B*18:01; test: as above; conditions: source organism: Listeria monocytogenes serotype 4b str. H7858
# [36] = target: HLA-A*03:01; test: as above
# [37] = target: HLA-A*23:01; test: as above; conditions: source organism: Listeria monocytogenes serotype 4b str. H7858
# [38] = target: HLA-B*27:03; test: as above; conditions: source organism: Listeria monocytogenes serotype 4b str. H7858
# [39] = target: HLA-A*26:01; test: as above; conditions: source organism: Listeria monocytogenes serotype 4b str. H7858
# [40] = target: HLA-B*44:02; test: as above; conditions: source organism: Salmonella enterica
# [41] = target: HLA-A*01:01; test: as above; conditions: source organism: Salmonella enterica
# [42] = target: HLA-B*08:01; test: as above; conditions: source organism: Salmonella enterica subsp. enterica serovar Typhimurium str. LT2
# [43] = target: HLA-B*07:02; test: as above; conditions: source organism: Salmonella enterica
# [44] = target: HLA-C*14:02; test: as above; conditions: source organism: Salmonella enterica subsp. enterica serovar Typhi str. CT18
# [45] = target: HLA-B*40:01; test: as above; conditions: source organism: Salmonella enterica
# [46] = target: HLA-B*27:05; test: as above; conditions: source organism: Salmonella enterica
# [47] = target: HLA-B*15:01; test: as above; conditions: source organism: Salmonella enterica
# [48] = target: HLA-A*11:01; test: as above; conditions: source organism: Salmonella enterica
# [49] = target: HLA-B*58:01; test: as above; conditions: source organism: Salmonella enterica
# [50] = source organism: Vibrio vulnificus
# [51] = source organism: Listeria monocytogenes serotype 4b str. H7858
# [52] = source organism: Salmonella enterica
sequence,measurement,setting,value
QLAFTYCQV,Kd,[1]; source organism: Vibrio vulnificus YJ016,≤ 0.1 nM
same,Kd,[2]; [50],153 nM
same,Kd,[3]; [50],567 nM
same,Kd,[4],2 nM
same,Kd,[5]; source organism: Vibrio vulnificus CMCP6,21 nM
IEVKDTKEAL,Kd,[6],574 nM
same,Kd,[7],681 nM
same,Kd,[8],≥ 20000 nM
same,Kd,[9],≥ 20000 nM
same,Kd,[10],766 nM
same,Kd,[11],≥ 20000 nM
same,Kd,[12],314 nM
same,Kd,[13],≥ 20000 nM
AALEGLSGF,Kd,[14],≥ 5000 nM
same,Kd,[15],≥ 5000 nM
same,Kd,[16],771 nM
same,Kd,[17],≥ 5000 nM
same,Kd,[18],≥ 5000 nM
same,Kd,[19],≥ 5000 nM
same,Kd,[20],≥ 5000 nM
same,Kd,[21],≥ 5000 nM
same,Kd,[22],≥ 5000 nM
same,Kd,[23],≥ 5000 nM
same,Kd,[24],≥ 5000 nM
same,Kd,[25],≥ 5000 nM
same,Kd,[26],≥ 5000 nM
same,Kd,[2]; [51],≥ 20000 nM
same,Kd,[27],1920 nM
same,Kd,[28],≥ 20000 nM
same,Kd,[29],542 nM
same,Kd,[30],≥ 20000 nM
same,Kd,[3]; [51],1900 nM
same,Kd,[31],≥ 20000 nM
same,Kd,[32],≥ 20000 nM
same,Kd,[33],≥ 20000 nM
same,Kd,[34],≥ 20000 nM
same,Kd,[35],≥ 20000 nM
same,Kd,[36]; [51],≥ 20000 nM
same,Kd,[37],622 nM
same,Kd,[38],≥ 20000 nM
same,Kd,[39],≥ 20000 nM
AMMWRIAQL,Kd,[1]; source organism: Salmonella enterica subsp. enterica serovar Typhi,≤ 0.1 nM
same,Kd,[2]; [52],2000 nM
same,Kd,[40],≥ 20000 nM
same,Kd,[41],≥ 20000 nM
same,Kd,[42],612 nM
same,Kd,[3]; [52],26.2 nM
same,Kd,[43],≥ 20000 nM
same,Kd,[44],118 nM
same,Kd,[45],2280 nM
same,Kd,[5]; source organism: Salmonella enterica subsp. enterica serovar Typhimurium str. LT2,≤ 1 nM
same,Kd,[46],348 nM
same,Kd,[47],171 nM
same,Kd,[36]; [52],≥ 20000 nM
same,Kd,[48],≥ 20000 nM
same,Kd,[49],≥ 20000 nM
